In US7531500B2, “Preventing airway mucus production by administration of EGF-R antagonists” (The Regents of the University of California, priority 1998, dated 2009):

B1: IL-13: recombinant murine IL-13 in rats; recombinant human IL-13 in chemotaxis (R&D systems) (protein, UniProt P20109 19-131, looked up)
Interleukin-13: APGPVPRSVSLPLTLKELIEELSNITQDQTPLCNGSMVWSVDLAAGGFCVALDSLTNISNCNAIYRTQRILHGLCNRKAPTTVSSLPDTKIEVAHFITKLLSYTKQLFRHGPF

What was measured:
NCI-H292 cells = assay: Immunoassay of MUC5AC protein in NCI-H292 cells (Example 2); assay type: cell-based, human; conditions: 1 h incubation, protein at 24 h; IL-8 10^-8 M, fMLP 10^-8 M, TNFα 20 ng/ml
[1] = tested on: rat nasal septal epithelium; assay: fMLP-induced degranulation and regranulation of goblet cells in rat nasal epithelium; assay type: in vivo
Procedure: Nasal Tissue Preparation. At various times after inhalation, rats were anesthetized with pentobarbital sodium (65 mg/kg, i.p.). The heart of the animal was exposed, a blunt-ended needle was inserted from the apex of the left ventricle into the ascending aorta, and the systemic circulation was perfused with 1% paraformaldehyde. An incision in the right atrium provided an outlet for the fixative. The eyes, lower jaws, skin, and musculature were removed, and the head was immersed in a large volume of the same fixative for 24 h. […]
Counting of Neutrophils in Nasal Epithelium. Neutrophils were counted in high power fields of the epithelial layer stained with 3,3′-diaminobenzidine at magnification ×400. The number of neutrophils within the nasal sepal epithelium (from the basement membrane to cell apices) was determined by counting the number of nuclear profiles per unit of basal lamina length.
Quantification of Goblet Cell Degranulation and Regranulation. To assess goblet cell degranulation and regranulation, we measured the volume density of Alcian blue/PAS-stained mucosubstances on the mucosal surface epithelium using a semiautomatic imaging system according to a previously published method. […] Images of the nasal epithelium were recorded in high power fields with a phase contrast lens at x400, using an IMAXX Video System (PDI, Redmond, Wash.). […]

human neutrophils = assay: Chemotaxis of human neutrophils (microchemotaxis chamber); assay type: cell-based; conditions: 10^-10, 10^-9, 5×10^-9 M
Procedure: Human neutrophils were purified from peripheral blood obtained from healthy donors. Neutrophil isolation was performed by standard techniques of Ficoll-Hypaque gradient separation, dextran sedimentation, and hypotonic lysis of erythrocytes. Cells were routinely >95% viable by trypan blue dye exclusion. To prevent endotoxin contamination, all solutions were passed through a […]. Chemotactic activity was assessed in 48-well microchemotaxis chamber (Neuroprobe, Cabin John, Md.), utilizing the leading front technique. Migration was measured as net movement of neutrophils ([…]) through a nitrocellulose filter (pore size, 3 μm) after 25 min at 37° C. The effect of IL-13 (10^−10, 10^−9, and 5×10^−9 M; recombinant human IL-13, R&D systems, Minneapolis, Minn.) is expressed as the distance traveled, compared to the random migration of neutrophils incubated with RPMI 1640.

pathogen-free rats = assay: IL-13-induced goblet cell metaplasia in rat airways; assay type: in vivo
Procedure: Animals were anesthetized with pentobarbital [Nembutal sodium, 50 mg/kg, intraperitoneally (ip), Abbott Laboratories, North Chicago, Ill.] and allowed to breathe spontaneously. Vehicle (phosphate buffer solution, PBS) or IL-13 was instilled intratracheally via a 20-gauge Angiocath catheter (Beckton Dickinson, Sandy, Utah) through the mouth, while the laryngeal area was visualized using a high-intensity illuminator (FiberLite; Dolan Jenner Industries, Inc., Lawrence, Mass.). The […] tissues were examined 48 hours after instillation of IL-13. Various concentrations of IL-13 (recombinant murine IL-13; 5, 50, 100, and 500 ng/rat, R&D systems, Minneapolis, Minn.) were instilled into the trachea in […]. Sterile PBS (200 μl) was instilled into the trachea as controls. For examination of the relationship between IL-13-induced GC metaplasia and activation of EGFR, animals were pretreated 1 d before instillation of IL-13 and daily thereafter with a selective EGFR tyrosine kinase inhibitor (BIBX 1522; 1-30 mg/kg/day, ip; Boehringer Ingelheim, Ingelheim, Germany). Animals were euthanized 48 hours after instillation of IL-13. In preliminary studies, we noted that IL-13 causes leukocyte recruitment into the airways. We hypothesized that leukocyte recruitment results from IL-13-induced chemoattractant release from epithelium, and that this recruitment is involved in the IL-13-induced EGFR cascade leading to GC metaplasia. Groups of animals were euthanized 4, 8, 16, 24, and 48 hours after instillation of IL-13 (500 ng), and leukocytes were counted in airway tissue. […] Sigma chemical Co., St Louis, Mo.] or with a blocking antibody to interleukin-8 (IL-BAb; rabbit anti-human IL-8 antibody; Biosource, Camarillo, Calif.). […] In another series of studies, we instilled IL-8 Ab (10 μg/rat) intratracheally, along with IL-13; we repeated the instillation of anti-human IL-8 blocking antibody at 12 hour intervals until the animals were euthanized. Animals were euthanized with a lethal dose of pentobarbital (Nembutal sodium, 200 mg/kg, ip, Abbott Laboratories, North Chicago, Ill.), and the systemic circulation was perfused with 1% paraformaldehyde in Diethylpyrocarbonate (DEPC, Sigma chemical Co., St Louis, Mo.)-treated PBS via the left ventricle. For frozen sections, […] tissues were removed, placed in 4% paraformaldehyde overnight, and then placed in 30% sucrose for cryoprotection. The tissues were embedded in optimal cutting temperature (OCT, […]., Inc., Torrance, Calif.) compound. For plastic or paraffin sections, tissues were placed in 4% paraformaldehyde overnight, dehydrated with ethanol, and embedded in JB-4 plus monomer solution A (Polysclences, Inc., Warrington, Pa.) or in paraffin. The embedded tissues were cut as cross sections 4 μm thick and placed on glass slides. In all studies, the carina was examined to obtain consistent sampling. We measured AB/PAS-positive areas and total epithelial area, and we expressed the results as the percentage of AB/PAS area to total epithelial area. The analysis was performed with the public domain NIH IMAGE program (developed at the U.S. National Institutes of Health and available by anonymous FTP from zippy.nimh.gov. or floppy disk from the National Technical Information Service, Springfield, Va., part number PB95-500195GEI). […] For immunohistochemical localization of […], we used mouse anti-human IL-8 antibody (1:20; Biosource, Camarillo, Calif.). The sections were then incubated with biotinylated horse anti-mouse IgG (Vector Laboratories, Burlingame, Calif.) at 1:200 dilution for 1 hour at room temperature. Bound antibody was visualized according to standard protocols for avidin-biotin-peroxidase complex method. The measurement of MUC5AC protein also utilized the same method used for quantitative measurement of GC metaplasia in the epithelium. Animals were euthanized 4, 8, 16, 24, and 48 hours after instillation of IL-13 (500 ng), and leukocytes were counted in airway tissue. […]

[2] = IL-13 5, 50, 100, 500 ng/rat intratracheal, 48 hours, dose-dependently

Molecule | MUC5AC synthesis, stimulus alone without neutrophils (NCI-H292 cells) | area of MUC5AC-positive immunostaining ([1]; 4 h after fMLP aerosol (10^-7 M)) | AB/PAS-stained area of nasal epithelium ([1]; 4 h after fMLP aerosol (10^-7 M) intranasally for 5 min) | neutrophil movement (human neutrophils) | leukocyte recruitment into airway epithelium (pathogen-free rats; IL-13 500 ng) | start of leukocyte recruitment (pathogen-free rats; IL-13 500 ng) | time of maximal leukocyte recruitment (pathogen-free rats; IL-13 500 ng) [h] | AB/PAS staining in rat airway epithelium (pathogen-free rats; [2]) | MUC5AC staining in rat airway epithelium (pathogen-free rats; [2]) | EGFR expression in airway epithelium (pathogen-free rats; instillation of IL-13) | staining of airway epithelium with anti-human IL-8 antibody (IL-8-like chemoattractant) (pathogen-free rats; instillation of IL-13) | TNFα expression in rat airway tissue (pathogen-free rats; instillation of IL-13, mainly in infiltrating neutrophils)
CSCC[C@H](NC=O)C(=O)N[C@@H](CC(C)C)C(=O)N[C@@H](Cc1ccccc1)C(=O)O [fMLP, N-formyl-methionyl-leucyl-phenylalanine] | no effect | markedly decreased | markedly decreased | – | – | – | – | – | – | – | – | –
B1 | – | – | – | decreased neutrophil movement dose-dependently | time-dependent leukocyte recruitment | approximately 8 hours | ≤ 24 | increased | increased | increased | positive staining | induced
